Results published in patent US20080182978A1, “ANTI-NGF ANTIBODIES AND METHODS USING SAME” (RINAT NEUROSCIENCE CORP, priority 2002, published 2008).

Target: human NGF (Homo sapiens, UniProt P01138)
Experiment: BIAcore screening assay of Fab library clones (koff)
Assay type: binding
Settings: for binding affinity compared with the 8L2-6D5 template: single CDR3 mutation
Method: Small scale expression in 96 wells plates was optimized for screening Fab libraries. Starting from E. coli transformed with a Fab library, colonies were picked to inoculate both a master plate (agar LB+Ampicillin (50 μg/ml)+2% Glucose) and a working plate (2 ml/well, 96 well/plate containing 1.5 mL of LB+Ampicillin (50 μg/ml)+2% Glucose). Both plates were grown at 30° C. for 8-12 hours. The master plate was stored at 4° C. and the cells from the working plate were pelleted at 5000 rpm and resuspended with 1 mL of LB+Ampicillin (50 μg/ml)+1 mM IPTG to induce expression of Fabs. Cells were harvested by centrifugation after 5 h expression time at 30° C., then resuspended in 500 μL of buffer HBS-EP ([…] buffer pH 7.4, 150 mM NaCl, 0.005% P20, 3 mM EDTA). Lysis of HBS-EP resuspended cells was attained by one cycle of freezing (−80° C.) then thawing at 37° C. Cell lysates were centrifuged at 5000 rpm for 30 min to separate cell debris from supernatants containing Fabs. The supernatants were then injected into the BIAcore plasmon resonance apparatus to obtain affinity information for each Fab. Clones expressing Fabs were rescued from the master plate to sequence the DNA and for large scale Fab production and detailed characterization as described below.
Affinities of anti-NGF Fabs and monoclonal antibodies were determined using the BIAcore300™ surface plasmon resonance (SPR) system (BIAcore, INC, Piscaway N.J.). CM5 chips were activated with N-ethyl-N′-(3-dimethylaminopropyl)-carbodimide hydrochloride (EDC) and N-hydroxysuccinimide (NHS) according to the supplier's instructions. Human NGF was diluted into 10 mM sodium acetate pH 4.0 and injected over the activated chip at a concentration of 0.005 mg/mL. Using variable flow time across the individual chip channels, two ranges of antigen density were achieved: 100-200 response units (RU) for detailed kinetic studies and 500-600 RU for screening assays. The chip was blocked with ethanolamine. […] HBS-EP buffer (0.01M HEPES, pH 7.4, 0.15 NaCl, 3 mM EDTA, 0.005% Surfactant […]) was used as running buffer for all the BIAcore assays.
A screening BIAcore assay was optimized to determine the affinity of Fab clones from libraries. Supernatants of small culture lysates were injected at 50 μl/min for 2 min. Dissociation times of 10 to 15 minutes were used for determination of a single exponential dissociation rate (koff) using BIAevaluation software. […] Clones showing improved (slower) koff values were expressed at large scale and full kinetic parameters, kon and koff, were determined on purified protein. The assay was capable of detecting differences in affinity that were approximately 2-fold or larger.
For affinity screening experiments, each library was further paired with the corresponding CDR-grafted light or heavy chain (for example, the H1/H2 library was paired with CDR-grafted light chain), the antibody was expressed, and affinity to human NGF of the individual clones was screened using the BIACORE surface plasmon resonance (SPR) system (BIAcore, Inc. Piscataway, N.J.) according to the manufacturer's instructions and as described above. koff, kon and KD were determined. Antibody clones were ranked based on koff rates, since generally most variation in affinity is seen in koff rates, and further because koff rates are independent of antibody concentration.
20-80 clones from each small library were screened using BIAcore analysis as described herein. Samples were simultaneously analyzed by BIAcore for binding affinity to NGF in one channel of the BIAcore chip and for presence of Fab by binding to a penta-histag antibody in another channel of the sensor chip, to detect the his tag at the C terminus of the heavy chain. Clones that expressed protein were classified as having the same affinity, worse affinity, better affinity or no binding, using koff to classify: The results of this analysis are shown in Table 5.

[1] = Table 3: heavy chain library clones paired with 6D5 light chain
[2] = Table 3: light chain library clones paired with 8L2 heavy chain
[3] = Table 6: single CDR H3 or L3 mutation in 8L2-6D5 template

Chain of human NGF (P01138 122-241): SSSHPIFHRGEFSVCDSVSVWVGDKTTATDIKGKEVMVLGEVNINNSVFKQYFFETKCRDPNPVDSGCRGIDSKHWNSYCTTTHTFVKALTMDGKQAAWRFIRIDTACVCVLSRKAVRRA

| Molecule | koff [2] | koff [3] [s⁻¹] | binding affinity compared with the 8L2-6D5 template | also measured |
| --- | --- | --- | --- | --- |
| 8L2-6D5: CDR-grafted antibody with V71K heavy chain framework substitution; template for affinity maturation (antibody, V domains shown) VH: QVQLQESGPGLVKPSETLSLTCTVSGFSLIGYDINWIRQPPGKGLEWIGMIWGDGTTDYNSALKSRVTISKDTSKNQFSLKLSSVTAADTAVYYCARGGYYYGTSYYFDYWGQGTLVTVS VL: DIQMTQSPSSLSASVGDRVTITCRASQDISNHLNWYQQKPGKAPKLLIYYISRFHSGVPSRFSGSGSGTDFTFTISSLQPEDIATYYCQQSKTLPYTFGQGTKLEIKRT | **1e3 s-1 | 0.001 |  | koff [1]: 0.001 s⁻¹; koff (Table 8: CDR L3 H3 combination mutations, 8L2-6D5 template): 0.001 s⁻¹; koff (template used to create the library): 1×10^−3 s^− |
| L81: light chain library clone, CDRL1 SEQ ID NO:24, CDRL2 SEQ ID NO:25 (antibody, V domains shown) VH: QVQLQESGPGLVKPSETLSLTCTVSGFSLIGYDINWIRQPPGKGLEWIGMIWGDGTTDYNSALKSRVTISKDTSKNQFSLKLSSVTAADTAVYYCARGGYYYGTSYYFDYWGQGTLVTVS VL: DIQMTQSPSSLSASVGDRVTITCRAFQAISNQLNWYQQKPGKAPKLLIYYISRFHTGVPSRFSGSGSGTDFTFTISSLQPEDIATYYCQQSKTLPYTFGQGTKLEIKRT | 0.00074 s⁻¹ |  |  |  |
| S91E: 8L2-6D5 template with CDR L3 mutation S91E (SEQ ID NO:50) (antibody, V domains shown) VH: QVQLQESGPGLVKPSETLSLTCTVSGFSLIGYDINWIRQPPGKGLEWIGMIWGDGTTDYNSALKSRVTISKDTSKNQFSLKLSSVTAADTAVYYCARGGYYYGTSYYFDYWGQGTLVTVS VL: DIQMTQSPSSLSASVGDRVTITCRASQDISNHLNWYQQKPGKAPKLLIYYISRFHSGVPSRFSGSGSGTDFTFTISSLQPEDIATYYCQQEKTLPYTFGQGTKLEIKRT |  | 0.00025 | significantly increased binding affinity |  |
| Y101W: 8L2-6D5 template with CDR H3 mutation Y101W (SEQ ID NO:46) (antibody, V domains shown) VH: QVQLQESGPGLVKPSETLSLTCTVSGFSLIGYDINWIRQPPGKGLEWIGMIWGDGTTDYNSALKSRVTISKDTSKNQFSLKLSSVTAADTAVYYCARGGYWYGTSYYFDYWGQGTLVTVS VL: DIQMTQSPSSLSASVGDRVTITCRASQDISNHLNWYQQKPGKAPKLLIYYISRFHSGVPSRFSGSGSGTDFTFTISSLQPEDIATYYCQQSKTLPYTFGQGTKLEIKRT |  | 0.00056 | significantly increased binding affinity |  |
| H19: heavy chain library clone, CDRH1 SEQ ID NO:30, CDRH2 SEQ ID NO:31 (antibody, V domains shown) VH: QVQLQESGPGLVKPSETLSLTCTVSGFSLIGYDLNWIRQPPGKGLEWIGIIWGDGTTDYNSAVKSRVTISKDTSKNQFSLKLSSVTAADTAVYYCARGGYYYGTSYYFDYWGQGTLVTVS VL: DIQMTQSPSSLSASVGDRVTITCRASQDISNHLNWYQQKPGKAPKLLIYYISRFHSGVPSRFSGSGSGTDFTFTISSLQPEDIATYYCQQSKTLPYTFGQGTKLEIKRT |  |  |  | koff [1]: 0.00024 s⁻¹ |
| G103A: 8L2-6D5 template with CDR H3 mutation G103A (SEQ ID NO:49) (antibody, V domains shown) VH: QVQLQESGPGLVKPSETLSLTCTVSGFSLIGYDINWIRQPPGKGLEWIGMIWGDGTTDYNSALKSRVTISKDTSKNQFSLKLSSVTAADTAVYYCARGGYYYATSYYFDYWGQGTLVTVS VL: DIQMTQSPSSLSASVGDRVTITCRASQDISNHLNWYQQKPGKAPKLLIYYISRFHSGVPSRFSGSGSGTDFTFTISSLQPEDIATYYCQQSKTLPYTFGQGTKLEIKRT |  | 0.00016 | significantly increased binding affinity |  |
| L97: light chain library clone, CDRL1 SEQ ID NO:22, CDRL2 SEQ ID NO:23 (antibody, V domains shown) VH: QVQLQESGPGLVKPSETLSLTCTVSGFSLIGYDINWIRQPPGKGLEWIGMIWGDGTTDYNSALKSRVTISKDTSKNQFSLKLSSVTAADTAVYYCARGGYYYGTSYYFDYWGQGTLVTVS VL: DIQMTQSPSSLSASVGDRVTITCRASQSISNQLNWYQQKPGKAPKLLIYYVSRFHSGVPSRFSGSGSGTDFTFTISSLQPEDIATYYCQQSKTLPYTFGQGTKLEIKRT | 0.00056 s⁻¹ |  |  |  |
| H109: heavy chain library clone, CDRH1 SEQ ID NO:28, CDRH2 SEQ ID NO:29 (antibody, V domains shown) VH: QVQLQESGPGLVKPSETLSLTCTVSGFSLIGYDSNWIRQPPGKGLEWIGIIWGDGTTDYNSALKSRVTISKDTSKNQFSLKLSSVTAADTAVYYCARGGYYYGTSYYFDYWGQGTLVTVS VL: DIQMTQSPSSLSASVGDRVTITCRASQDISNHLNWYQQKPGKAPKLLIYYISRFHSGVPSRFSGSGSGTDFTFTISSLQPEDIATYYCQQSKTLPYTFGQGTKLEIKRT |  |  |  | koff [1]: 0.00016 s⁻¹ |

Continued, in another order:

| koff [2] | koff [3] [s⁻¹] | binding affinity compared with the 8L2-6D5 template | Molecule | also measured |
| --- | --- | --- | --- | --- |
| 0.00046 s⁻¹ |  |  | L208: light chain library clone, CDRL1 SEQ ID NO:20, CDRL2 SEQ ID NO:21 (antibody, V domains shown) VH: QVQLQESGPGLVKPSETLSLTCTVSGFSLIGYDINWIRQPPGKGLEWIGMIWGDGTTDYNSALKSRVTISKDTSKNQFSLKLSSVTAADTAVYYCARGGYYYGTSYYFDYWGQGTLVTVS VL: DIQMTQSPSSLSASVGDRVTITCRASQYISNHLNWYQQKPGKAPKLLIYYTSRFHSGVPSRFSGSGSGTDFTFTISSLQPEDIATYYCQQSKTLPYTFGQGTKLEIKRT |  |
| 0.00045 s⁻¹ |  |  | L129: light chain library clone, CDRL1 SEQ ID NO:18, CDRL2 SEQ ID NO:19 (antibody, V domains shown) VH: QVQLQESGPGLVKPSETLSLTCTVSGFSLIGYDINWIRQPPGKGLEWIGMIWGDGTTDYNSALKSRVTISKDTSKNQFSLKLSSVTAADTAVYYCARGGYYYGTSYYFDYWGQGTLVTVS VL: DIQMTQSPSSLSASVGDRVTITCRASQSISNNLNWYQQKPGKAPKLLIYYTSRFHSGVPSRFSGSGSGTDFTFTISSLQPEDIATYYCQQSKTLPYTFGQGTKLEIKRT |  |
|  | 0.00064 | significantly increased binding affinity | S105T: 8L2-6D5 template with CDR H3 mutation S105T (SEQ ID NO:48) (antibody, V domains shown) VH: QVQLQESGPGLVKPSETLSLTCTVSGFSLIGYDINWIRQPPGKGLEWIGMIWGDGTTDYNSALKSRVTISKDTSKNQFSLKLSSVTAADTAVYYCARGGYYYGTTYYFDYWGQGTLVTVS VL: DIQMTQSPSSLSASVGDRVTITCRASQDISNHLNWYQQKPGKAPKLLIYYISRFHSGVPSRFSGSGSGTDFTFTISSLQPEDIATYYCQQSKTLPYTFGQGTKLEIKRT |  |
|  | 0.00051 | significantly increased binding affinity | S105A: 8L2-6D5 template with CDR H3 mutation S105A (SEQ ID NO:47) (antibody, V domains shown) VH: QVQLQESGPGLVKPSETLSLTCTVSGFSLIGYDINWIRQPPGKGLEWIGMIWGDGTTDYNSALKSRVTISKDTSKNQFSLKLSSVTAADTAVYYCARGGYYYGTAYYFDYWGQGTLVTVS VL: DIQMTQSPSSLSASVGDRVTITCRASQDISNHLNWYQQKPGKAPKLLIYYISRFHSGVPSRFSGSGSGTDFTFTISSLQPEDIATYYCQQSKTLPYTFGQGTKLEIKRT |  |
